Source: the supplement of paper PMC11246515
± gives the standard deviation of the averaged measurements.

Test: total protein half-life in vivo (active degradation + dilution); higher = more stable protein
[1] = E. coli NCM3722 delta-hslV, growth: N-lim chemostat, doubling time 6 h
[2] = E. coli NCM3722 delta-lon, growth: N-lim chemostat, doubling time 6 h
[3] = wild type E. coli NCM3722, growth: C-lim chemostat, doubling time 3 h
[4] = wild type E. coli NCM3722, growth: N-lim chemostat, doubling time 6 h
[5] = wild type E. coli NCM3722, growth: P-lim chemostat, doubling time 6 h
[6] = E. coli NCM3722 delta-clpP, growth: N-lim chemostat, doubling time 6 h
[7] = E. coli NCM3722 delta-smpB, growth: N-lim chemostat, doubling time 6 h
[8] = wild type E. coli NCM3722, growth: C-lim chemostat, doubling time 6 h
[9] = wild type E. coli NCM3722, growth: C-lim chemostat, doubling time 12 h
[10] = wild type E. coli NCM3722, growth: N-lim chemostat, doubling time 12 h
[11] = wild type E. coli NCM3722, growth: P-lim chemostat, doubling time 12 h

For “MIRKSATGVIVALAVIWGGGTWYTGTQIQPGVEKFIKDFNDAKKKGEHAYDMTLSYQNFDKGFFNSRFQMQMTFDNGAPDLNIKPGQKVVFDVDVEHGPLPITMLMHGNVIPALAAAKVNLVNNELTQPLFIAAKNKSPVEATLRFAFGGSFSTTLDVAPAEYGKFSFGEGQFTFNGDGSSLSNLDIEGKVEDIVLQLSPMNKVTAKSFTIDSLARLEEKKFPVGESESKFNQINIINHGEDVAQIDAFVAKTRLDRVKDKDYINVNLTYELDKLTKGNQQLGSGEWSLIAESIDPSAVRQFIIQYNIAMQKQLAAHPELANDEVALQEVNAALFKEYLPLLQKSEPTIKQPVRWKNALGELNANLDISIADPAKSSSSTNKDIKSLNFDVKLPLNVVTETAKQLNLSEGMDAEKAQKQADKQISGMMTLGQMFQLITIDNNTASLQLRYTPGKVVFNGQEMSEEEFMSRAGRFVH”, the “total protein half-life in vivo” value [1] was 5.74 h, the “total protein half-life in vivo” value [2] was 6.55 h and the “total protein half-life in vivo” value [3] was 2.57 h. For the same sequence, the “total protein half-life in vivo” value [4] was 6.18 h and the “total protein half-life in vivo” value [5] was 5.4 h.
For “MARRILVVEDEAPIREMVCFVLEQNGFQPVEAEDYDSAVNQLNEPWPDLILLDWMLPGGSGIQFIKHLKRESMTRDIPVVMLTARGEEEDRVRGLETGADDYITKPFSPKELVARIKAVMRRISPMAVEEVIEMQGLSLDPTSHRVMAGEEPLEMGPTEFKLLHFFMTHPERVYSREQLLNHVWGTNVYVEDRTVDVHIRRLRKALEPGGHDRMVQTVRGTGYRFSTRF [P0AFJ5]”, the “total protein half-life in vivo” value [6] was 4.76 ± 0.81 h, the “total protein half-life in vivo” value [1] was 3.79 ± 1.1 h and the “total protein half-life in vivo” value [2] was 5.36 ± 0.14 h. The “total protein half-life in vivo” value [7] was 4.52 ± 0.53 h, the “total protein half-life in vivo” value [3] was 2.93 ± 0.28 h and the “total protein half-life in vivo” value [8] was 5.33 ± 0.14 h. The “total protein half-life in vivo” value [9] was 8.01 ± 1.2 h, the “total protein half-life in vivo” value [4] was 4.51 ± 0.3 h and the “total protein half-life in vivo” value [10] was 8.09 h. For the same sequence, the “total protein half-life in vivo” value [5] was 6.11 ± 1 h and the “total protein half-life in vivo” value [11] was 11.3 ± 0.5 h.
With “MAIERTFSIIKPNAVAKNVIGNIFARFEAAGFKIVGTKMLHLTVEQARGFYAEHDGKPFFDGLVEFMTSGPIVVSVLEGENAVQRHRDLLGATNPANALAGTLRADYADSLTENGTHGSDSVESAAREIAYFFGEGEVCPRTR [P0A763]” the “total protein half-life in vivo” value [6] was 3.93 ± 0.36 h, the “total protein half-life in vivo” value [1] was 3.85 ± 0.32 h and the “total protein half-life in vivo” value [2] was 4.39 ± 0.36 h. The “total protein half-life in vivo” value [7] was 3.92 ± 0.15 h, the “total protein half-life in vivo” value [3] was 3.09 ± 0.092 h and the “total protein half-life in vivo” value [8] was 5.64 ± 0.11 h. The “total protein half-life in vivo” value [9] was 9.324 ± 0.023 h, the “total protein half-life in vivo” value [4] was 3.88 ± 0.28 h and the “total protein half-life in vivo” value [10] was 6.19 ± 0.36 h. For the same sequence, the “total protein half-life in vivo” value [5] was 5 ± 0.82 h and the “total protein half-life in vivo” value [11] was 10.6 ± 0.11 h.
For “MIEVKHLKTLQALRNCGSLAAAAATLHQTQSALSHQFSDLEQRLGFRLFVRKSQPLRFTPQGEILLQLANQVLPQISQALQACNEPQQTRLRIAIECHSCIQWLTPALENFHKNWPQVEMDFKSGVTFDPQPALQQGELDLVMTSDILPRSGLHYSPMFDYEVRLVLAPDHPLAAKTRITPEDLASETLLIYPVQRSRLDVWRHFLQPAGVSPSLKSVDNTLLLIQMVAARMGIAALPHWVVESFERQGLVVTKTLGEGLWSRLYAAVRDGEQRQPVTEAFIRSARNHACDHLPFVKSAERPTYDAPTVRPGSPARL [P0A9F9]”, the “total protein half-life in vivo” value (E. coli NCM3722 delta-clpP delta-lon delta-hslV, growth: N-lim chemostat, doubling time 6 h) was 5.1817 ± 0.0019 h, the “total protein half-life in vivo” value [6] was 1.5 ± 0.033 h and the “total protein half-life in vivo” value [1] was 0.933 ± 0.25 h. For the same sequence, the “total protein half-life in vivo” value [2] was 2.88 ± 0.57 h, the “total protein half-life in vivo” value [7] was 1.1 ± 0.09 h and the “total protein half-life in vivo” value [3] was 0.811 ± 0.024 h. The “total protein half-life in vivo” value [8] was 1.17 ± 0.17 h, the “total protein half-life in vivo” value [9] was 1.08 ± 0.34 h and the “total protein half-life in vivo” value [4] was 1.14 ± 0.14 h. For the same sequence, the “total protein half-life in vivo” value [10] was 1.81 ± 0.27 h, the “total protein half-life in vivo” value [5] was 0.609 h and the “total protein half-life in vivo” value [11] was 1.87 h.
For “MTESVARLRGEQLTLGYGKYTVAENLTVEIPDGHFTAIIGPNGCGKSTLLRTLSRLMTPAHGHVWLDGEHIQHYASKEVARRIGLLAQNATTPGDITVQELVARGRYPHQPLFTRWRKEDEEAVTKAMQATGITHLADQSVDTLSGGQRQRAWIAMVLAQETAIMLLDEPTTWLDISHQIDLLELLSELNREKGYTLAAVLHDLNQACRYASHLIALREGKIVAQGAPKEIVTAELIERIYGLRCMIIDDPVAGTPLVVPLGRTAPSTANS”, the “total protein half-life in vivo” value [7] was 3.69 h, the “total protein half-life in vivo” value [3] was 3.78 h and the “total protein half-life in vivo” value [8] was 5.57 h. For the same sequence, the “total protein half-life in vivo” value [9] was > 16 h and the “total protein half-life in vivo” value [10] was 7.66 h.
With “MSFSEFYQRSINEPEQFWAEQARRIDWQTPFTQTLDHSNPPFARWFCEGRTNLCHNAIDRWLEKQPEALALIAVSSETEEERTFTFRQLHDEVNAVASMLRSLGVQRGDRVLVYMPMIAEAHITLLACARIGAIHSVVFGGFASHSVAARIDDAKPVLIVSADAGARGGKIIPYKKLLDDAISQAQHQPRHVLLVDRGLAKMARVSGRDVDFASLRHQHIGARVPVAWLESNETSCILYTSGTTGKPKGVQRDVGGYAVALATSMDTIFGGKAGSVFFCASDIGWVVGHSYIVYAPLLAGMATIVYEGLPTWPDCGVWWTIVEKYQVSRMFSAPTAIRVLKKFPTAEIRKHDLSSLEVLYLAGEPLDEPTASWVSNTLDVPVIDNYWQTESGWPIMAIARGLDDRPTRLGSPGVPMYGYNVQLLNEVTGEPCGVNEKGMLVVEGPLPPGCIQTIWGDDGRFVKTYWSLFSRPVYATFDWGIRDADGYHFILGRTDDVINVAGHRLGTREIEESISSHPGVAEVAVVGVKDALKGQVAVAFVIPKESDSLEDRDVAHSQEKAIMALVDSQIGNFGRPAHVWFVSQLPKTRSGKMLRRTIQAICEGRDPGDLTTIDDPASLDQIRQAMEE” the “total protein half-life in vivo” value [8] was 0.366 ± 0.12 h and the “total protein half-life in vivo” value [9] was 0.611 h.
For “MRGKKRIGLLFLLIAVVVGGGGLLLAQKVLHKTSDTAFCLSCHSMSKPFEEYQGTVHFSNQKGIRAECADCHIPKSGMDYLFAKLKASKDIYHEFVSGKIDSDDKFEAHRQEMAETVWKELKATDSATCRSCHSFDAMDIASQSESAQKMHNKAQKDSETCIDCHKGIAHFPPEIKMDDNAAHELESQAATSVTNGAHIYPFKTSHIGELATVNPGTDLTVVDASGKQPIVLLQGYQMQGSENTLYLAAGQRLALATLSEEGIKALTVNGEWQADEYGNQWRQASLQGALTDPALADRKPLWQYAEKLDDTYCAGCHAPIAADHYTVNAWPSIAKGMGARTSMSENELDILTRYFQYNAKDITEKQ”, the “total protein half-life in vivo” value [3] was 2.33 h, the “total protein half-life in vivo” value [8] was 4.09 h and the “total protein half-life in vivo” value [9] was 8.13 ± 1.1 h.
In the case of “MQATATTLDHEQEYTPINSRNKVLVASLIGTAIEFFDFYIYATAAVIVFPHIFFPQGDPTAATLQSLATFAIAFVARPIGSAVFGHFGDRVGRKATLVASLLTMGISTVVIGLLPGYATIGIFAPLLLALARFGQGLGLGGEWGGAALLATENAPPRKRALYGSFPQLGAPIGFFFANGTFLLLSWLLTDEQFMSWGWRVPFIFSAVLVIIGLYVRVSLHESPVFEKVAKAKKQVKIPLGTLLTKHVRVTVLGTFIMLATYTLFYIMTVYSMTFSTAAAPVGLGLPRNEVLWMLMMAVIGFGVMVPVAGLLADAFGRRKSMVIITTLIILFALFAFNPLLGSGNPILVFAFLLLGLSLMGLTFGPMGALLPELFPTEVRYTGASFSYNVASILGASVAPYIAAWLQTNYGLGAVGLYLAAMAGLTLIALLLTHETRHQSL”, the “total protein half-life in vivo” value [9] is reported as 2.58 ± 0.1 h, the “total protein half-life in vivo” value [5] is reported as 2.33 ± 0.58 h and the “total protein half-life in vivo” value [11] is reported as 2.89 ± 1.6 h.
